Experiments:
Experiment in all cases: proteo-liposome transport assay, LC-MS/MS
Type in all cases: biochemical, Arabidopsis thaliana
Conditions in all cases: apparent Km, proteo-liposomes pre-loaded with 10 mM GMP, 0.5–400 μM substrate, 25 °C, pH 7.5, mean (s.e.m.) n=4
[1] = substrate: C[C@@H]1O[C@H](OP(=O)(O)OP(=O)(O)OC[C@H]2O[C@@H](n3cnc4c(=O)[nH]c(N)nc43)[C@H](O)[C@@H]2O)[C@@H](O)[C@H](O)[C@@H]1O
From the text: proteo-liposome transport assay, LC-MS/MS on GFT1

[2] = substrate: Nc1nc2c(ncn2[C@@H]2O[C@H](COP(=O)(O)OP(=O)(O)O[C@H]3O[C@H](CO)[C@@H](O)[C@H](O)[C@@H]3O)[C@@H](O)[C@H]2O)c(=O)[nH]1
From the text: (§1) proteo-liposome transport assay, LC-MS/MS on GONST1

[3] = substrate: C[C@@H]1O[C@H](OP(=O)(O)OP(=O)(O)OC[C@H]2O[C@@H](n3cnc4c(=O)[nH]c(N)nc43)[C@H](O)[C@@H]2O)[C@@H](O)[C@H](O)[C@@H]1O; remark: listed apart in the source
From the text: as §1

B1: GFT1 (Arabidopsis thaliana) (protein)
chain: MSSSRFDSNKQLTTSSLVIGYALCSSLLAVINKLAITYFNYPGLLTALQYLTCTVAVYLLGKSGLINHDPFTWDTAKKFLPAAIVFYLAIFTNTNLLRHANVDTFIVFRSLTPLLVAIADTVFRSQPLPSRLTFLSLVVILAGAVGYVATDSSFTLTAYSWALAYLVTITTEMVYIKHMVSNIKLNIWGLVLYNNLLSLMIAPVFWFLTGEFTEVFAALSENRGNLFEPYAFSSVAASCVFGFLISYFGFAARNAISATAFTVTGVVNKFLTVVINVLIWDKHATPVGLVCLLFTICGGVGYQQSVKLDKPIEKVSEKDSEKGEEDEELTQLVPGKLASVV
notes: yeast microsomal protein reconstituted into liposomes
Km [1]: 7 (1) μM
Vmax [1]: 3.24 µM/min
kcat [1]: 4 s⁻¹

B2: GONST1 (Arabidopsis thaliana) (protein)
chain: MKLYEHDGVDLEDGKTVKSGGDKPIPRKIHNRALLSGLAYCISSCSMILVNKFVLSSYNFNAGIFLMLYQNFVSVIIVVGLSLMGLITTEPLTLRLMKVWFPVNVIFVGMLITSMFSLKYINVAMVTVLKNVTNVITAVGEMYLFNKQHDNRVWAALFLMIISAVSGGITDLSFNAVGYAWQIANCFLTASYSLTLRKTMDTAKQVTQSGNLNEFSMVLLNNTLSLPLGLLLSYFFNEMDYLYQTPLLRLPSFWMVMTLSGLLGLAISFTSMWFLHQTGATTYSLVGSLNKIPLSIAGIVLFNVPTSLQNSASILFGLVAGVVFARAKMREKS
notes: as for B1
Km [2]: 17 (3) μM
Vmax [2]: 1.44 µM/min
kcat [2]: 1.2 s⁻¹
Km [3]: 76 (5) μM
Vmax [3]: 0.84 µM/min
kcat [3]: 0.7 s⁻¹
